Data taken from patent publication US20130260458A1, “METHOD OF INDUCING DIFFERENTIATION OF HUMAN PLURIPOTENT STEM CELL INTO HEPATIC PROGENITOR CELL” (NATIONAL UNIVERSITY CORPORATION CHIBA UNIVERSITY, priority 2012, published 2013).
“Also recorded” adds a separate entry of the source.

Tests used:
Human iPS cells (201B7) [1] = experiment: Expression of transcription factors in iPS cells cultured with single growth-promoting agents (RT-PCR, electrophoresis); assay type: cell-based; conditions: iPS cells in iPSm(−) medium with the growth-promoting agent added; PCR and electrophoresis, FIG. 2
Protocol: Reverse transcriptase (Life Technologies Japan Ltd.) was used to synthesize cDNAs of iPS cells, fetal hepatic cells and adult hepatic cells from 3 μg of RNA. The cDNAs were subjected to polymerase chain reaction (PCR) using the following primers to GATA4, FOXA2, HEX, C/EBPα and C/EBPβ, respectively, and to electrophoresis using 2% low-melting agarose (Lonza) and 1×TAE, for investigations on the expression of GATA4, FOXA2, HEX, C/EBPα and C/EBNβ in the iPS cells, fetal hepatic cells and adult hepatic cells.
After electrophoresis, the 2% low-melting agarose was irradiated with ultraviolet rays at 254 nm from a UV transilluminator (UVP LLC, NLMS-20E), and a Polaroid photograph (FUJIFILM Corporation, FP-3000B) thereof was taken with a gel camera (Funakoshi DS-300) to analyze an electrophoretic pattern.
PCR cycles performed included 30 cycles of thermal denaturation: 1 minute at 94° C.; annealing: 1 minute and elongation reaction: 1 minute at 72° C.
Human iPS cells (201B7, RIKEN cell bank) were seeded onto a matrigel-coated 6-well plate, and cultured in a feeder-less medium, ReproFF (trade name, Reprocell Inc.) for culture of stem cells maintained in an undifferentiated state, without using a feeder cell, under conventional conditions: 37° C. and 5% carbon dioxide.
A medium obtained by adding a 20% knock-out serum replacement (Life Technologies Japan Ltd.), 10% Minimum Essential Amino Acids (Life Technologies Japan Ltd.), 2 mM of L-glutamine (Life Technologies Japan Ltd.) and 1 mM of 2-mercaptoethanol to a D-MEM/F12 medium (Dulbecco's Modified Eagle Medium-F12 medium, Sigma-Aldrich Japan) was used as an iPSm(−) medium.
The following growth-promoting agents were added to the iPSm(−) medium, and SOX-17, GATA6, FOXA2, GATA4, HEX, TTR and C/EBPα were expressed in a manner similar to that in Experiment 1.
As the growth-promoting agents, added were bFGF (basic fibroblast growth factor, Wako Pure Chemical Industries, Ltd.), BMP (bone morphogenetic protein)-4 (Wako Pure Chemical Industries, Ltd.), oncostatinM (Wako Pure Chemical Industries, Ltd.), an epidermal growth factor (EGF, Wako Pure Chemical Industries, Ltd.), a nerve growth factor (NGF, R & D Systems, Inc.), TGF-β, (transform growth factor-β, R& D Systems, Inc.), retinoic acid (Sigma-Aldrich Japan) and a hepatic cell growth factor (HGF, Sigma-Aldrich Japan).
RT-PCR to SOX-17, GATA6 and TTR was performed under the following conditions.

Human iPS cells (201B7) [2] = experiment: Induction of differentiation into hepatic progenitor cells by growth-promoting agents (real-time quantitative PCR of AFP and DLK-1); assay type: cell-based; conditions: iPS cells transfected with FOXA2, GATA4, HEX, C/EBPα three times every three days, 8th day, n=3, ± standard error, ReproFF lane = 100
Protocol: Human iPS cells (201B7, RIKEN cell bank) were seeded onto a matrigel-coated 6-well plate, and cultured in a medium, ReproFF in accordance with a conventional method under the following conditions: 37° C. and 5% carbon dioxide. A lipofection reagent, Lipofectamine LTX (registered trade mark, Life Technologies Japan Ltd.) was used to transfect 0.5 μg of expression plasmids of FOXA2, GATA4, HEX and C/EBPα, respectively. […]
The transfection of the transcription factors was repeated three times every three days, and, on the 8th day, RNA was extracted using Isogen (NIPPON GENE CO., LTD.). […] Then, the amount of expressed α-fetoprotein (AFP), which was an indicator of hepatic progenitor cells, was analyzed by the real-time quantitative PCR method using a real-time PCR analysis reagent, Fast SYBR Green Master Mix (trade name, Life Technologies Japan Ltd.). […] The amounts of α-fetoprotein (AFP) and Delta-like (DLK)-1 expressed were quantitatively determined as an indicator of hepatic progenitor cells by employing ribosome-related protein (RLP19) as internal standard (each group, n=3).
The real-time quantitative PCR was performed by using the following primers through a PCR cycle including 30 cycles of 5 seconds at 95° C. and 20 seconds at 60° C.

| Molecule | expression of C/EBPα (Human iPS cells (201B7) [1]) | expression of FOXA2 (Human iPS cells (201B7) [1]) | expression of GATA4 (Human iPS cells (201B7) [1]) | expression of GATA6 (Human iPS cells (201B7) [1]) | expression of HEX (Human iPS cells (201B7) [1]) | α-fetoprotein/RPL19 ratio (mRNA expression) (Human iPS cells (201B7) [2]; FIG. 3-1) | DLK-1/RPL19 ratio (mRNA expression) (Human iPS cells (201B7) [2]; FIG. 3-2) | expression of SOX-17 (Human iPS cells (201B7) [1]) |
| --- | --- | --- | --- | --- | --- | --- | --- | --- |
| epidermal growth factor (protein, UniProt P01133 23-1207, looked up, Pro-epidermal growth factor, growth factor used as growth-promoting agent (Wako Pure Chemical Industries)) Pro-epidermal growth factor: PQHWSCPEGTLAGNGNSTCVGPAPFLIFSHGNSIFRIDTEGTNYEQLVVDAGVSVIMDFHYNEKRIYWVDLERQLLQRVFLNGSRQERVCNIEKNVSGMAINWINEEVIWSNQQEGIITVTDMKGNNSHILLSALKYPANVAVDPVERFIFWSSEVAGSLYRADLDGVGVKALLETSEKITAVSLDVLDKRLFWIQYNREGSNSLICSCDYDGGSVHISKHPTQHNLFAMSLFGDRIFYSTWKMKTIWIANKHTGKDMVRINLHSSFVPLGELKVVHPLAQPKAEDDTWEPEQKLCKLRKGNCSSTVCGQDLQSHLCMCAEGYALSRDRKYCEDVNECAFWNHGCTLGCKNTPGSYYCTCPVGFVLLPDGKRCHQLVSCPRNVSECSHDCVLTSEGPLCFCPEGSVLERDGKTCSGCSSPDNGGCSQLCVPLSPVSWECDCFPGYDLQLDEKSCAASGPQPFLLFANSQDIRHMHFDGTDYGTLLSQQMGMVYALDHDPVENKIYFAHTALKWIERANMDGSQRERLIEEGVDVPEGLAVDWIGRRFYWTDRGKSLIGRSDLNGKRSKIITKENISQPRGIAVHPMAKRLFWTDTGINPRIESSSLQGLGRLVIASSDLIWPSGITIDFLTDKLYWCDAKQSVIEMANLDGSKRRRLTQNDVGHPFAVAVFEDYVWFSDWAMPSVMRVNKRTGKDRVRLQGSMLKPSSLVVVHPLAKPGADPCLYQNGGCEHICKKRLGTAWCSCREGFMKASDGKTCLALDGHQLLAGGEVDLKNQVTPLDILSKTRVSEDNITESQHMLVAEIMVSDQDDCAPVGCSMYARCISEGEDATCQCLKGFAGDGKLCSDIDECEMGVPVCPPASSKCINTEGGYVCRCSEGYQGDGIHCLDIDECQLGEHSCGENASCTNTEGGYTCMCAGRLSEPGLICPDSTPPPHLREDDHHYSVRNSDSECPLSHDGYCLHDGVCMYIEALDKYACNCVVGYIGERCQYRDLKWWELRHAGHGQQQKVIVVAVCVVVLVMLLLLSLWGAHYYRTQKLLSKNPKNPYEESSRDVRSRRPADTEDGMSSCPQPWFVVIKEHQDLKNGGQPVAGEDGQAADGSMQPTSWRQEPQLCGMGTEQGCWIPVSSDKGSCPQVMERSFHMPSYGTQTLEGGVEKPHSLLSANPLWQQRALDPPHQMELTQ | not observed to be expressed | not observed to be expressed | not observed to be expressed | observed to be expressed | not observed to be expressed | 139±13 | 59±7 | – |
| oncostatin M (protein, UniProt P13725 26-221, looked up, growth factor used as growth-promoting agent (Wako Pure Chemical Industries)) Oncostatin-M: AAIGSCSKEYRVLLGQLQKQTDLMQDTSRLLDPYIRIQGLDVPKLREHCRERPGAFPSEETLRGLGRRGFLQTLNATLGCVLHRLADLEQRLPKAQDLERSGLNIEDLEKLQMARPNILGLRNNIYCMAQLLDNSDTAEPTKAGRGASQPPTPTPASDAFQRKLEGCRFLHGYHRFMHSVGRVFSKWGESPNRSRR | slightly expressed; also recorded: not observed to be expressed | not observed to be expressed | not observed to be expressed | – | not observed to be expressed | – | – | observed to be expressed |
